B1: tesB: Escherichia coli thioesterase encoded by tesB, GenBank Accession No. AAA24665.1 (protein, listed as Escherichia coli)
chain: MSQALKNLLTLLNLEKIEEGLFRGQSEDLGLRQVFGGQVVGQALYAAKETVPEERLVHSFHSYFLRPGDSKKPIIYDVETLRDGNSFSARRVAAIQNGKPIFYMTASFQAPEAGFEHQKTMPSAPAPDGLPSETQIAQSLAHLLPPVLKDKFICDRPLEVRPVEFHNPLKGHVAEPHRQVWIRANGSVPDDLRVHQYLLGYASDLNFLPVALQPHGIGFLEPGIQIATIDHSMWFHRPFNLNEWLLYSVESTSASSARGFVRGEFYTQDGVLVASTVQEGVMRNHN
B2: SEQ ID NO 4: Segniliparus rugosus carboxylate reductase, Genbank Accession No. EFV11917.1 (protein, listed as Segniliparus rugosus)
chain: MGDGEERAKRFFQRIGELSATDPQFAAAAPDPAVVEAVSDPSLSFTRYLDTLMRGYAERPALAHRVGAGYETISYGELWARVGAIAAAWQADGLAPGDFVATVGFTSPDYVAVDLAAARSGLVSVPLQAGASLAQLVGILEETEPKVLAASASSLEGAVACALAAPSVQRLVVFDLRGPDASESAADERRGALADAEEQLARAGRAVVVETLADLAARGEALPEAPLFEPAEGEDPLALLIYTSGSTGAPKGAMYSQRLVSQLWGRTPVVPGMPNISLHYMPLSHSYGRAVLAGALSAGGTAHFTANSDLSTLFEDIALARPTFLALVPRVCEMLFQESQRGQDVAELRERVLGGRLLVAVCGSAPLSPEMRAFMEEVLGFPLLDGYGSTEALGVMRNGIIQRPPVIDYKLVDVPELGYRTTDKPYPRGELCIRSTSLISGYYKRPEITAEVFDAQGYYKTGDVMAEIAPDHLVYVDRSKNVLKLSQGEFVAVAKLEAAYGTSPYVKQIFVYGNSERSFLLAVVVPNAEVLGARDQEEAKPLIAASLQKIAKEAGLQSYEVPRDFLIETEPFTTQNGLLSEVGKLLRPKLKARYGEALEARYDEIAHGQADELRALRDGAGQRPVVETVVRAAVAISGSEGAEVGPEANFADLGGDSLSALSLANLLHDVFEVEVPVRIIIGPTASLAGIAKHIEAERAGASAPTAASVHGAGATRIRASELTLEKFLPEDLLAAAKGLPAADQVRTVLLTGANGWLGRFLALEQLERLARSGQDGGKLICLVRGKDAAAARRRIEETLGTDPALAARFAELAEGRLEVVPGDVGEPKFGLDDAAWDRLAEEVDVIVHPAALVNHVLPYHQLFGPNVVGTAEIIRLAITAKRKPVTYLSTVAVAAGVEPSSFEEDGDIRAVVPERPLGDGYANGYGNSKWAGEVLLREAHELVGLPVAVFRSDMILAHTRYTGQLNVPDQFTRLVLSLLATGIAPKSFYQQGAAGERQRAHYDGIPVDFTAEAITTLGAEPSWFDGGAGFRSFDVFNPHHDGVGLDEFVDWLIEAGHPISRIDDHKEWFARFETAVRGLPEAQRQHSLLPLLRAYSFPHPPVDGSVYPTGKFQGAVKAAQVGSDHDVPHLGKALIVKYADDLKALGLL
B3: SEQ ID NO 7: Segniliparus rotundus carboxylate reductase, Genbank Accession No. ADG98140.1 (protein, listed as Segniliparus rotundus)
chain: MTQSHTQGPQASAAHSRLARRAAELLATDPQAAATLPDPEVVRQATRPGLRLAERVDAILSGYADRPALGQRSFQTVKDPITGRSSVELLPTFDTITYRELRERATAIASDLAHHPQAPAKPGDFLASIGFISVDYVAIDIAGVFAGLTAVPLQTGATLATLTAITAETAPTLFAASIEHLPTAVDAVLATPSVRRLLVFDYRAGSDEDREAVEAAKRKIADAGSSVLVDVLDEVIARGKSAPKAPLPPATDAGDDSLSLLIYTSGSTGTPKGAMYPERNVAHFWGGVWAAAFDEDAAPPVPAINITFLPLSHVASRLSLMPTLARGGLMHFVAKSDLSTLFEDLKLARPTNLFLVPRVVEMLYQHYQSELDRRGVQDGTREAEAVKDDLRTGLLGGRILTAGFGSAPLSAELAGFIESLLQIHLVDGYGSTEAGPVWRDGYLVKPPVTDYKLIDVPELGYFSTDSPHPRGELAIKTQTILPGYYKRPETTAEVFDEDGFYLTGDVVAQIGPEQFAYVDRRKNVLKLSQGEFVTLAKLEAAYSSSPLVRQLFVYGSSERSYLLAVIVPTPDALKKFGVGEAAKAALGESLQKIARDEGLQSYEVPRDFIIETDPFTVENGLLSDARKSLRPKLKEHYGERLEAMYKELADGQANELRDIRRGVQQRPTLETVRRAAAAMLGASAAEIKPDAHFTDLGGDSLSALTFSNFLHDLFEVDVPVGVIVSAANTLGSVAEHIDAQLAGGRARPTFATVHGKGSTTIKASDLTLDKFIDEQTLEAAKHLPKPADPPRTVLLTGANGWLGRFLALEWLERLAPAGGKLITIVRGKDAAQAKARLDAAYESGDPKLAGHYQDLAATTLEVLAGDFSEPRLGLDEATWNRLADEVDFISHPGALVNHVLPYNQLFGPNVAGVAEIIKLAITTRIKPVTYLSTVAVAAGVEPSALDEDGDIRTVSAERSVDEGYANGYGNSKWGGEVLLREAHDRTGLPVRVFRSDMILAHQKYTGQVNATDQFTRLVQSLLATGLAPKSFYELDAQGNRQRAHYDGIPVDFTAESITTLGGDGLEGYRSYNVFNPHRDGVGLDEFVDWLIEAGHPITRIDDYDQWLSRFETSLRGLPESKRQASVLPLLHAFARPGPAVDGSPFRNTVFRTDVQKAKIGAEHDIPHLGKALVLKYADDIKQLGLL

Key:
Type in all cases: biochemical
[1] = Thioesterase enzyme activity assay using pimeloyl-CoA as substrate, forming pimelate; details: 667 μM pimeloyl-CoA, 0.8 μM tesB gene product, pH 7.4, 37° C., 20 min, compared to empty vector control
Experimental: A sequence encoding an N-terminal His tag was added to the tesB gene from Escherichia coli that encodes a thioesterase (SEQ ID NO 1, see FIG. 7A), such that an N-terminal HIS tagged thioesterase could be produced. The modified tesB gene was cloned into a pET15b expression vector under control of the T7 promoter. The expression vector was transformed into a BL21[DE3] E. coli host. The resulting recombinant E. coli strain was cultivated at 37° C. in a 500 mL shake flask culture containing 50 mL Luria Broth (LB) media and antibiotic selection pressure, with shaking at 230 rpm. The culture was induced overnight at 17° C. using 0.5 mM IPTG.
The pellet from the induced shake flask culture was harvested via centrifugation. The pellet was resuspended and lysed in Y-per™ solution (ThermoScientific, Rockford, Ill.). The cell debris was separated from the supernatant via centrifugation. […]
The enzyme activity assay was performed in triplicate in a buffer composed of 50 mM phosphate buffer (pH=7.4), 0.1 mM Ellman's reagent, and 667 μM of pimeloyl-CoA (as substrate). […] The release of Coenzyme A was monitored by absorbance at 412 nm. The absorbance associated with the substrate only control, which contained boiled enzyme, was subtracted from the active enzyme assay absorbance and compared to the empty vector control.

[2] = Carboxylate reductase activity assay (pimelate to pimelate semialdehyde); details: purified enzyme enhanced by sfp gene product, 2 mM pimelate, 1 mM ATP, 1 mM NADPH, pH 7.5, room temperature, 20 min, against empty vector control
Experimental: A sequence encoding a HIS-tag was added to the genes from Segniliparus rugosus and Segniliparus rotundus that encode the carboxylate reductases of SEQ ID NOs: 4 and 7, respectively (see FIGS. 7C and 7F), such that N-terminal HIS tagged carboxylate reductases could be produced. Each of the modified genes was cloned into a pET Duet expression vector along with a sfp gene encoding a HIS-tagged phosphopantetheine transferase from Bacillus subtilis, both under the T7 promoter. Each expression vector was transformed into a BL21[DE3] E. coli host and the resulting recombinant E. coli strains were cultivated at 37° C. in a 250 mL shake flask culture containing 50 mL LB media and antibiotic selection pressure, with shaking at 230 rpm. Each culture was induced overnight at 37° C. using an auto-induction media.
The pellet from each induced shake flask culture was harvested via centrifugation. Each pellet was resuspended and lysed via sonication, and the cell debris was separated from the supernatant via centrifugation. […]
Enzyme activity assays (i.e., from pimelate to pimelate semialdehyde) were performed in triplicate in a buffer composed of a final concentration of 50 mM HEPES buffer (pH=7.5), 2 mM pimelate, 10 mM MgCl2, 1 mM ATP and 1 mM NADPH. […] The consumption of NADPH was monitored by absorbance at 340 nm.

[3] = Carboxylate reductase activity assay (N7-acetyl-7-aminoheptanoate to N7-acetyl-7-aminoheptanal); details: purified enzyme enhanced by sfp gene product, 2 mM N7-acetyl-7-aminoheptanoate, 1 mM ATP, 1 mM NADPH, pH 7.5, room temperature, 20 min, against empty vector control
Experimental: The activity of each of the N-terminal His-tagged carboxylate reductases of SEQ ID NOs: 3, 6, and 7 (see Example 4, and FIGS. 7B, 7E, and 7F) for converting N7-acetyl-7-aminoheptanoate to N7-acetyl-7-aminoheptanal was assayed in triplicate in a buffer composed of a final concentration of 50 mM HEPES buffer (pH=7.5), 2 mM N7-acetyl-7-aminoheptanoate, 10 mM MgCl2, 1 mM ATP, and 1 mM NADPH. The assays were initiated by adding purified carboxylate reductase and phosphopantetheine transferase or the empty vector control to the assay buffer containing the N7-acetyl-7-aminoheptanoate then incubated at room temperature for 20 min. The consumption of NADPH was monitored by absorbance at 340 nm.

[4] = Carboxylate reductase activity assay (pimelate semialdehyde to heptanedial); details: purified enzyme enhanced by sfp gene product, 2 mM pimelate semialdehyde, 1 mM ATP, 1 mM NADPH, pH 7.5, room temperature, 20 min, against empty vector control
Experimental: The N-terminal His-tagged carboxylate reductase of SEQ ID NO 7 (see Example 4 and FIG. 7F) was assayed using pimelate semialdehyde as substrate. The enzyme activity assay was performed in triplicate in a buffer composed of a final concentration of 50 mM HEPES buffer (pH=7.5), 2 mM pimelate semialdehyde, 10 mM MgCl2, 1 mM ATP and 1 mM NADPH. The enzyme activity assay reaction was initiated by adding purified carboxylate reductase and phosphopantetheine transferase or the empty vector control to the assay buffer containing the pimelate semialdehyde and then incubated at room temperature for 20 min. The consumption of NADPH was monitored by absorbance at 340 nm.

Molecule	acceptance of pimeloyl-CoA as substrate (release of Coenzyme A, absorbance at 412 nm) [1]	acceptance of pimelate as substrate (consumption of NADPH, absorbance at 340 nm) [2]	acceptance of N7-acetyl-7-aminoheptanoate as substrate (consumption of NADPH, absorbance at 340 nm) [3]	acceptance of pimelate semialdehyde as substrate, forming heptanedial (consumption of NADPH, absorbance at 340 nm) [4]
B1	acceped pimeloyl-CoA as substrate			
B2		accepted pimelate as substrate		
B3		accepted pimelate as substrate	accepted N7-acetyl-7-aminoheptanoate as substrate	accepted pimelate semialdehyde as substrate

Reference: US9617572B2, “Methods of producing 7-carbon chemicals via aromatic compounds” (INVISTA North America S.á r.l., priority 2012, dated 2017)
